Reference: publication doi:10.1101/287425

Target: pyrene-labeled actin (rabbit skeletal muscle F-actin) (rabbit) (UniProt P68135)
Test: other fluorescence titration

- relative pyrene-actin fluorescence after addition of 2.0 mM MgATP: 0.95
- stoichiometry N (myosin heads per actin): 1
Substance: single-headed S1 fragment of bovine ventricular cardiac myosin (from UniProt Q9BE39 1-1935; P85100 1-199) (complex)
